Earlier results on two substances are cited in US20070178499.

Data set [1] concerns Aart(S) 6-finger (artificial). Conditions: CITED?; affinity stated without method.
Data set [2] concerns E2C(S) 6-finger (artificial). The settings on record: CITED (Beerli 2000).

As to Aart 18-bp target site, the dissociation constant (Kd) in data set [1] was 7.5 pM. E3 site of erbB-3: in data set [2], the binding signal (fold loss in affinity vs n8) is 15.
